Measured values from US20240132589A1 (ONCORESPONSE, published 2024).

B1: B2H1-11 (antibody, V domains shown)
VH: QVQLEESGGRVVQPGRSLRLSCAASGFSLSTYAMSWVRQAPGKGLEWIGWIYNDGSTYYAAWAKGRFTISKDTSKTTVFLQMNSLKPDDTATYFCAREGDYIGYFNIWGQGTLVTVSS
VL: DIQMTQSPSSLSASVGDRVTITCQASQSIGSNLAWYQLKPGQRPKLLIYAAATLASGVPSRFKGSGSGTDFTLTISSLQSEDAATYYCQSYVSGSSDVAFGGGTEVVVK
notes: Humanized variant, human IgG1 / kappa
B2: B2H1-35 (antibody, V domains shown)
VH: QVQLVESGGRVVQPGTPLRLSCAASGFSLSTYAMSWVRQAPGKGLEWVAWIYNDGSTYYAAWAKGRFTISRDTSKNTLYLQTNSLKPDDTAVYYCAREGDYIGYFNIWGQGTLVTVSS
VL: DVVMTQTPSSVSAALGGTVTIKCQASQSIGSNLAWYQLKPGQRPKLLIYAAATLASGGSSRFKGSGSGTDFTLTISSLEPADAATYYCQSYVSGSSDVAFGGGTEVVVK
notes: as for B1
B3: B2H1-52 (antibody, V domains shown)
VH: EVQLLESGGGLVQPGTSLTLSCAASGFSLSTYAMSWVRQAPGKGLEWIGWIYNDGSTYYAAWAKGRFTISKDTSKTTLYLQITSLRAEDTATYFCAREGDYIGYFNIWGQGTLVTVSS
VL: DVVMTQSPSSVSASLGDRVTITCQASQSIGSNLAWYQQKPGQAPKLLIYAAATLASGVPSRFKGSGSGTDFTLTITSLQPADFATYYCQSYVSGSSDVAFGGGTKVEIK
notes: as for B1
B4: B2Comp1 (antibody, human IgG4 S228P, lambda, V domains shown)
VH: EVQLQQWGAGLLKPSETLSLTCAVYGGSFSGYYWSWIRQPPGKGLEWIGEINHAGSTNYNPSLKSRVTISVDTSKNQFSLKLSSVTAADTAVYYCARLPTRWVTTRYFDLWGRGTLVTVSS
VL: ESVLTQPPSVSGAPGQRVTISCTGSSSNIGAGYDVHWYQQLPGTAPKLLIYGDSNRPSGVPDRFSVSKSGASASLAITGLQAEDEADYYCQSFDNSLSAYVFGGGTQLTVLG
notes: Benchmark antibody, IgG4 heavy chain and lambda light chain; biotin-conjugated when used as the labelled antibody in binning; also called MK-4830 (as designated in WO 2021/138079 A1); αLILRB2B2Comp1

Columns and labels:
Assay in all cases: flow cytometry, transiently transfected HEK293-6E cells
[1] = target: T1, Human LILRA1 on transiently transfected HEK293-6E cells (human, UniProt O75019 17-489)
T1 construct: whole, on cells; also called hLILRA1

[2] = target: T2, Human LILRA2 on transiently transfected HEK293-6E cells (human, UniProt Q8N149 24-483)
T2 construct: whole, on cells; also called hLILRA2

[3] = target: T3, Human LILRA4 on transiently transfected HEK293-6E cells (human, UniProt P59901 24-499)
T3 construct: whole, on cells; also called hLILRA4

[4] = target: T4, Human LILRA5 on transiently transfected HEK293-6E cells (human, UniProt A6NI73 42-299)
T4 construct: whole, on cells; also called hLILRA5

[5] = target: T5, Human LILRA6 on transiently transfected HEK293-6E cells (human, UniProt Q6PI73 24-481)
T5 construct: whole, on cells; also called hLILRA6

[6] = target: T6, Human LILRB1 on transiently transfected HEK293-6E cells (human, UniProt Q8NHL6 24-650)
T6 construct: whole, on cells; also called hLILRB1

[7] = target: T7, Human LILRB3 on transiently transfected HEK293-6E cells (human, UniProt O75022 24-631)
T7 construct: whole, on cells; also called hLILRB3

[8] = target: T8, Human LILRB4 on transiently transfected HEK293-6E cells (human, UniProt Q8NHJ6 22-448)
T8 construct: whole, on cells; also called hLILRB4

[9] = target: T9, Human LILRB5 on transiently transfected HEK293-6E cells (human, UniProt O75023 24-590)
T9 construct: whole, on cells; also called hLILRB5

[10] = target: T10, Human LILRB2 on transiently transfected HEK293-6E cells (human, UniProt Q8N423 22-597)
T10 construct: whole, on cells; also called hLILRB2
Protocol: (§1) To determine that the anti-LILRB2 antibodies specifically bind to LILRB2 and not other LILRB and LILRA family members, a cross-reactivity assay was performed. Cross-reactivity of the LILRB2 antibodies to other LILRB proteins was assessed by antibody binding to transiently transfected HEK293-6E cells, measured by flow cytometry. Binding was evaluated to HEK293-6E cells transiently transfected with human LILRB-1, -2, -3, -4, and 5 plasmids (Origene, Nos. RC219949, RC217935, RC211228, RC220932, RC206516) or to cells transiently transfected with human LILRA-1, -2, -4, -5, and -6 plasmids (Origene, Nos. RC210808, RC205626, RC220452, RC212310 RC212965). […] Murine primary antibodies to LILRA and LILRB targets and corresponding isotype controls were used to confirm specific binding of all targets tested (R&D Systems) while an AF647 F(ab′)₂ fragment goat anti-mouse antibody (Jackson ImmunoResearch, No. 115-606-062) was used for the detection of bound positive control antibodies. No binding of B2A-IgG4 or B2A-IgG1 to LILRB-1, -3, -4, or -5 was observed, and no binding of either antibody to LILRA-1, -2, -4, -5, or -6 was observed, confirming specificity of these antibodies.
(§2) Select humanized variant antibodies were tested for their ability to bind other LILRB or LILRA family members, using the method and commercially available positive control antibodies of Example 5.

[11] = target: T1, Human LILRA1 on transiently transfected …; remark: listed apart in the source
Protocol: as §1, §2

[12] = target: T2, Human LILRA2 on transiently transfected …; remark: listed apart in the source
Protocol: as §1, §2

[13] = target: T3, Human LILRA4 on transiently transfected …; remark: listed apart in the source
Protocol: as §1, §2

[14] = target: T4, Human LILRA5 on transiently transfected …; remark: listed apart in the source
Protocol: as §1, §2

[15] = target: T5, Human LILRA6 on transiently transfected …; remark: listed apart in the source
Protocol: as §1, §2

[16] = target: T6, Human LILRB1 on transiently transfected …; remark: listed apart in the source
Protocol: as §1, §2

[17] = target: T7, Human LILRB3 on transiently transfected …; remark: listed apart in the source
Protocol: as §1, §2

[18] = target: T8, Human LILRB4 on transiently transfected …; remark: listed apart in the source
Protocol: as §1, §2

[19] = target: T9, Human LILRB5 on transiently transfected …; remark: listed apart in the source
Protocol: as §1, §2

[20] = target: T10, Human LILRB2 on transiently transfected …; remark: listed apart in the source
Protocol: as §1

T6 sequence (Q8NHL6 24-650): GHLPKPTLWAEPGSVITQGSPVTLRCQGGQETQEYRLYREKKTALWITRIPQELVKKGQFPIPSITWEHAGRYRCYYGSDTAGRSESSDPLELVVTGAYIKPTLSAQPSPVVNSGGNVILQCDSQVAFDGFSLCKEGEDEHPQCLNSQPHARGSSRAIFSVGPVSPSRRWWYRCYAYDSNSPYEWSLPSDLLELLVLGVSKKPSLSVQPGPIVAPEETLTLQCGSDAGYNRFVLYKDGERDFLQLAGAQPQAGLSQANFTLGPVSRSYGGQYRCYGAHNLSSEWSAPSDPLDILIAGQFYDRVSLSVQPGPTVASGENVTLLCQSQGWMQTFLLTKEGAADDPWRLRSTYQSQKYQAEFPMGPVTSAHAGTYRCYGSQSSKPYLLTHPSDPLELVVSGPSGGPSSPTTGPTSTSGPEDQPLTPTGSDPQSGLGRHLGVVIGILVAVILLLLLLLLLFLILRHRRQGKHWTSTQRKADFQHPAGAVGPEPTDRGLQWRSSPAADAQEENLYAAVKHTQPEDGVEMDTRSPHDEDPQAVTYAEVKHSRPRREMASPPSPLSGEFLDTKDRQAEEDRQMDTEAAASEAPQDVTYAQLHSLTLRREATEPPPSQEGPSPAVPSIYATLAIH
T9 sequence (O75023 24-590): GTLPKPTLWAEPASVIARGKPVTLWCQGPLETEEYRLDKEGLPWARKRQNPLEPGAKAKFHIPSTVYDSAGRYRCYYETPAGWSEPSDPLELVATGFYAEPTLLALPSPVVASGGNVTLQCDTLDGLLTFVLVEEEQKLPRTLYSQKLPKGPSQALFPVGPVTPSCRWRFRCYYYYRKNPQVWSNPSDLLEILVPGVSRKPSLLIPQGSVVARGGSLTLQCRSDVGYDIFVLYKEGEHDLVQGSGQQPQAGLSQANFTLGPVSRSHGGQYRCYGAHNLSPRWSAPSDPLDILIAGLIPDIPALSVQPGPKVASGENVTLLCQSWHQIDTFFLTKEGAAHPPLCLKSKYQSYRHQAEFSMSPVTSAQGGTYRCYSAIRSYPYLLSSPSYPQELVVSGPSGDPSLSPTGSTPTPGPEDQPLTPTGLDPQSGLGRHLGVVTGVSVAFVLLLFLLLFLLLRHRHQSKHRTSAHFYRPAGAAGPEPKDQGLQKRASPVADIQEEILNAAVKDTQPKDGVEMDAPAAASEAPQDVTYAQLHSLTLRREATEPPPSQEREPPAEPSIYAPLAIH
T4 sequence (A6NI73 42-299): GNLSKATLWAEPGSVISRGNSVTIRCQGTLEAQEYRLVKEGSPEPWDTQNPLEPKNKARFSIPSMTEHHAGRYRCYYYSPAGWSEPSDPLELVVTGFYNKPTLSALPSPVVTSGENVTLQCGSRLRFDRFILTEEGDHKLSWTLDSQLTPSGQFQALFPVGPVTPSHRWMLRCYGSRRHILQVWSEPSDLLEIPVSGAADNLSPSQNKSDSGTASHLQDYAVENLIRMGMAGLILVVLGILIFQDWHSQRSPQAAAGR
T5 sequence (Q6PI73 24-481): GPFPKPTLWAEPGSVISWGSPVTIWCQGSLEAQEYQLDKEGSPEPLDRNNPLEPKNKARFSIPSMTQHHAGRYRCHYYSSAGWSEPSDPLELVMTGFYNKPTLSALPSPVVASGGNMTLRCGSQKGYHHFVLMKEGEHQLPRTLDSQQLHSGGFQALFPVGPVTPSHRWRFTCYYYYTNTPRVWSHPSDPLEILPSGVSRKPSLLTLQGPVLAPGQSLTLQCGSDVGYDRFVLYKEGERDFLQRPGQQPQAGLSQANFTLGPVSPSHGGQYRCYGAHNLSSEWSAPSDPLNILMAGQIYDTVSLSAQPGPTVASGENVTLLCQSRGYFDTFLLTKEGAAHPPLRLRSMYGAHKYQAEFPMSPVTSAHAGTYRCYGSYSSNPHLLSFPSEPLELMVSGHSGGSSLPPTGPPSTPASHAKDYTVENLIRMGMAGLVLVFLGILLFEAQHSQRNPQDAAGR
T1 sequence (O75019 17-489): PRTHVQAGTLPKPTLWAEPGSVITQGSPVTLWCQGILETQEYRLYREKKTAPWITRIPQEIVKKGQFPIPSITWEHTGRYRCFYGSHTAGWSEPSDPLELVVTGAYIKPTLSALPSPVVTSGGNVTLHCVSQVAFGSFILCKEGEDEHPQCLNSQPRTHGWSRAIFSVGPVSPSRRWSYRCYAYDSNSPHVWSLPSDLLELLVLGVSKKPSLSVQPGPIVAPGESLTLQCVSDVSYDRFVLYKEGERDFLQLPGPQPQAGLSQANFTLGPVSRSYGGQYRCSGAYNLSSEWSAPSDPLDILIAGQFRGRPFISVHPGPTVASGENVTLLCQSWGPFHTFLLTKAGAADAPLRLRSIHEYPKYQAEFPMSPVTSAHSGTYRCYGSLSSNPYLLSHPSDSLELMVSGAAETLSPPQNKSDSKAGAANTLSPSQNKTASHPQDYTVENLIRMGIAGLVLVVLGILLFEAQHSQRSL
T3 sequence (P59901 24-499): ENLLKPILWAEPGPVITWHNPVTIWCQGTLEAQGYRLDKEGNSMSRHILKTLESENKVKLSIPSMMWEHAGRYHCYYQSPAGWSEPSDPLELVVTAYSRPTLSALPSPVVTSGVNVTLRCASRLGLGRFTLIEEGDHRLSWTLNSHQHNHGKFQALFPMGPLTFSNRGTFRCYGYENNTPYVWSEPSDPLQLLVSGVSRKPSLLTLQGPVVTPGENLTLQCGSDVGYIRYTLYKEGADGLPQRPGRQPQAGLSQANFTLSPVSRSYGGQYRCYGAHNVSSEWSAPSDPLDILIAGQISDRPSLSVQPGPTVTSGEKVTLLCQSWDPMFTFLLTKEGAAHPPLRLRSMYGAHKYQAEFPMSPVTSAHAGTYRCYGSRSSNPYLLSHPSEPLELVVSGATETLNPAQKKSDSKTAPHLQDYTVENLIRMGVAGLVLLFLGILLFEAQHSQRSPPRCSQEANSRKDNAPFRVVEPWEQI
T10 sequence (Q8N423 22-597): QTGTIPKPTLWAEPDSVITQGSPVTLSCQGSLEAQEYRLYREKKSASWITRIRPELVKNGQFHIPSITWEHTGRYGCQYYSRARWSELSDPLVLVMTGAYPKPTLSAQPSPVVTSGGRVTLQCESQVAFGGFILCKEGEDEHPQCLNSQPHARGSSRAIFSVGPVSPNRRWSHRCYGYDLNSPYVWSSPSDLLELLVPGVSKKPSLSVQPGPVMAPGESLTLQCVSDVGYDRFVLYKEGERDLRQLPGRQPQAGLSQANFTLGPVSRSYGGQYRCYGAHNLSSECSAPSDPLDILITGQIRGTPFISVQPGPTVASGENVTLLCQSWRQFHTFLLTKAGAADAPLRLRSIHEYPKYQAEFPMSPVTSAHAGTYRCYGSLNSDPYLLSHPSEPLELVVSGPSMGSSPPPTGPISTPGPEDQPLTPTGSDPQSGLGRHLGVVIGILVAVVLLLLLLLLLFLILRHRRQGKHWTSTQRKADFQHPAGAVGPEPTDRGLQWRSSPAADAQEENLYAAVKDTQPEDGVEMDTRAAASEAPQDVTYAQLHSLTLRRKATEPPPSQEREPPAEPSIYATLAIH
T2 sequence (Q8N149 24-483): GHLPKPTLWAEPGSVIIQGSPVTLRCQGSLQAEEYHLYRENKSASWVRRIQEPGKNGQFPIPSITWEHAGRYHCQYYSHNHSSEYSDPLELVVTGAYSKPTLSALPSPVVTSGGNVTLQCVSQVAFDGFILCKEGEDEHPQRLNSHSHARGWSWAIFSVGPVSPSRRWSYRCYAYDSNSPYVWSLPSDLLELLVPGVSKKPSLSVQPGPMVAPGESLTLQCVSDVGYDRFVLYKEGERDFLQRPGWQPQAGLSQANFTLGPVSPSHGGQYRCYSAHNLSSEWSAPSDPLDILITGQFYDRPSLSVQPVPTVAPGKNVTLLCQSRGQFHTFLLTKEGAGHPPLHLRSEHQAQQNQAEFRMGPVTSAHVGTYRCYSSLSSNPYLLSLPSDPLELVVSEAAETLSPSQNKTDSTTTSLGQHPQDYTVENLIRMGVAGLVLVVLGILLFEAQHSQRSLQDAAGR

Row | Binder | binding result [1] | binding result [2] | binding result [3] | binding result [4] | binding result [5] | binding result [6] | binding result [7] | binding result [8] | binding result [9] | Bmax (MFI) [10] [MFI] | Bmax (MFI) [11] [MFI] | Bmax (MFI) [12] [MFI] | BMAX [gMFI] [13] [gMFI] | Bmax (MFI) [14] [MFI] | Bmax (MFI) [15] [MFI] | Bmax (MFI) [16] [MFI] | Bmax (MFI) [17] [MFI] | Bmax (MFI) [18] [MFI] | Bmax (MFI) [19] [MFI] | MFI [20] [MFI]
1 | B1 | no binding | no binding | no binding | no binding | no binding | no binding | no binding | no binding | no binding | 11000 | 776 | 36.1 | 108 | 124 | 210 | 39.8 | 142 | 38 | 147 | –
2 | B2 | no binding | no binding | no binding | no binding | no binding | no binding | no binding | no binding | no binding | 10300 | 766 | 33.6 | 103 | 122 | 202 | 41.3 | 146 | 38.5 | 145 | –
3 | B3 | no binding | no binding | no binding | no binding | no binding | no binding | no binding | no binding | no binding | 10300 | 855 | 36.1 | 106 | 123 | 219 | 42.3 | 159 | 40.5 | 153 | –
4 | B4 | – | – | – | – | – | – | – | – | – | – | – | – | – | – | – | – | – | – | – | 9630
